± gives the half width of the 95% confidence interval.
Key:
[1] = folding stability dG unfold from trypsin proteolysis; higher = more stable
How it was run: (§1)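 Sequencing followed digestion of designed mini-proteins with trypsin and chymotrypsin, each at 11 concentrations in threefold dilutions together with a no-protease condition. The mini-proteins were under 80 residues, had no cysteine, sat in a PA-tagged cDNA display construct, and were kept only if AlphaFold2 dimer inter-PAE was above 15. From the counts, Bayesian fitting gave K50, and unfolding free energy was derived against a sequence-predicted unfolded-state K50 and a shared folded-state K50, per protease or combined.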

[2] = folding stability dG unfold from chymotrypsin proteolysis; higher = more stable
How it was run: as §1

[3] = folding stability dG unfold (combined trypsin and chymotrypsin); higher = more stable
How it was run: as §1

Row | Sequence | folding stability dG unfold [1] [kcal/mol] | folding stability dG unfold [2] [kcal/mol] | folding stability dG unfold [3] [kcal/mol]
1 | MVVTVETTMIDPEGNPLTKTFTVPSSVVEALKEAGKPLTKEELEKLVKEKVEAEAKKYNVSVEVTLVSFERS [r1_174_JUSTAS] | 2.21 ± 0.17 | 2.7 ± 0.066 | 2.6 ± 0.27
2 | NKIEIKAYKIEETGEIIVEVKIEFPVYDPETKTIKPVVLTITFVGDPEKAIEAIKKFVDFYGGEIDYIDFGS [r1_488_TrMRF] | 2.84 ± 0.099 | 4.5 ± 0.091 | 4.36 ± 0.1
3 | NPIERLKEAIKNAPPGETADIPFPDGMYININIEPEREKEDGKPRRRRKIKIEIYPPDGKPLGSITLEVPYS [r1_386_TrROS] | 1.49 ± 0.084 | 1.23 ± 0.11 | 1.36 ± 0.15
4 | PANVTYEFELADGYRVRVTLNPETGTATVEVEPVPERPPVAPVFIPRTLPEEEREALRRAAEEAGLEVVVGS [r1_242_TrMRF] | 2.42 ± 0.036 | 3.348 ± 0.031 | 3.06 ± 0.054
5 | PAVPKEYTVTLPNATAKVTLEEYEDFVLATAEVTFPDGAKATVTVTLEPTPDGVKRTVTLNIPPGFGAKLGS [r1_153_TrMRF] | 1.17 ± 0.013 | 1.9 ± 0.03 | 1.65 ± 0.06
6 | PDDVYVMFEIEPTNDGIKIPIKVRVPGKPIAEVEVPVDPDDGKIKIMVKFPSPEALDEAEDLLKELGIKPTS [r1_455_TrROS] | 0.319 ± 0.11 | 0.42 ± 0.12 | 0.537 ± 0.21
7 | PIIHFRSPEDAEDFVKELVKKIAKEARKNGDPGQPYEIKIPVVWHDEDSGGPHRFPIEIEIRPDGDIKLTFS [r1_316_TrROS] | 0.782 ± 0.02 | 1.76 ± 0.088 | 1.42 ± 0.062
8 | PKPLIEIERLPEGVLRARAINPVTGAPITITVPVEPGVDGYRLLAEVEAENVPPELAVKTAETVLALLEKKS [r1_403_TrMRF] | -0.115 ± 0.24 | -0.183 ± 0.33 | -0.0268 ± 0.26
9 | PPGYRPIEIEIPMKVESIEEAKEEVLNFAHELAEAFPNITDINVEVDKIDPNNGYIFAKITIYVGDKTITIS [r1_52_TrROS] | 0.424 ± 0.13 | 2.04 ± 0.081 | 1.8 ± 0.43
10 | PPLKIKMERYPNGMMKIDKIEVPNDGSIKLTLKFPNNGRKIERTIPPNAPPGQEKEIWFPFPNGFYRLKIES [r1_43_TrROS] | 0.0375 ± 0.24 | 0.291 ± 0.26 | 0.32 ± 0.23
11 | PSVVYLVLRRPEGGPVRSFRFPVPDRGEPGFEEVLDLIERVTGVSRGALRKNVRIVPVPETGDVLVVADLSS [r1_285_TrMRF] | 2.052 ± 0.014 | 1.52 ± 0.058 | 1.88 ± 0.065
12 | PVKVIEIRVEDPEKTAEEILAELRKKLPEEVKELRLFIVTPDGRVREIEPGETLADLLKPGDTVRIVVVERS [r1_56_TrROS_Hall] | 4.81 ± 0.34 | 5.66 ± 0.45 | > 6
13 | PWVMIPIRVDDPNMTIREIANEVRKALPPGNKNLKISIMWGDGRRYEIDPGETLKDHFPPGDEFHIMVRLPS [r1_56_TrROS] | 1.65 ± 0.02 | 1.3 ± 0.086 | 1.55 ± 0.048
14 | QEIPIKELIKEALENGRPIVFPNGMEITDINPDGSITVKMPYYNPDDPGQPVQPVEMQIKIDEDGRIEVEFS [r1_284_TrROS] | 0.96 ± 0.12 | 1.76 ± 0.054 | 1.45 ± 0.12
15 | SAAEKLPDGTIVIKLTEEEYKKLTEEEIEKIKEELKKEYPENVTVEIKPTKAKKIPTEPFEKGEKYNESSAG [r14_312_JUSTAS] | -0.313 ± 0.37 | -0.267 ± 0.37 | < -1
16 | SAAKKVVTVPLPFLAPENSITPEELVALAVAAFEKLFPGAKIEKFEFNMPVFRLPGDGVIVVVEITDTSSAG [r14_145_TrMRF] | 2.04 ± 0.041 | 2.411 ± 0.024 | 2.32 ± 0.088
17 | SADALKKILSNIHSVEFDPKWGWVTIHFPNKSKIKKALKEGFPRVEMQEDPDGHMMIRIRVPKLPPGQPSAG [r14_115_TrROS] | 1.82 ± 0.057 | 2.65 ± 0.043 | 2.35 ± 0.2
18 | SADIKIDVTYRRSPGEGRYTMTVRVELPDGKKLAEIPITMPADDPGMSPRQMREWARPIVKKLAKEGLISAG [r14_120_TrROS] | 0.537 ± 0.12 | 1.02 ± 0.1 | 0.889 ± 0.08

Row | Sequence | folding stability dG unfold [1] [kcal/mol] | folding stability dG unfold [2] [kcal/mol] | folding stability dG unfold [3] [kcal/mol]
19 | SADKILVRVVFNLGGPPVELTLEADSPEELVEATIAVIKPLFPDADIREVKLFVYNPNTDEVEEFTLTASAG [r14_54_TrMRF] | 2.44 ± 0.043 | 3.341 ± 0.021 | 3.06 ± 0.059
20 | SADKVEIEFPMPESGHPFRIVIDKDGKVEIRHPNNGEEYEFKINGKPIRFPPNMSWDDAIDQLKDALKKSAG [r14_561_TrROS] | 0.905 ± 0.075 | 0.645 ± 0.2 | 0.897 ± 0.19
21 | SADKVMIMFRSPQTFRRILREALKTDKPVYLMFPPKWMDELKELGFPNVKIEPQKNPNGGPYYMFELPVSAG [r14_127_TrROS] | 1.83 ± 0.044 | 1.75 ± 0.12 | 1.79 ± 0.18
22 | SADLKIDDVTVQHYNDYLYVSAEITFPNGWEITVHWMIDPNGKIIDMMIEIRPPPPPVDEEDQEKAQKKSAG [r14_171_TrROS] | 2.47 ± 0.22 | 3.35 ± 0.14 | 3.05 ± 0.25
23 | SADNYFIRIKHKLNGKPRERTYPIDSPEEALDAIKDELQPHFPGAPIDKVKIDVFNPNNGEWQEITLKISAG [r14_54_TrROS] | -0.0876 ± 0.11 | 0.373 ± 0.13 | 0.256 ± 0.13
24 | SADPDEEVTLTLTLPASASPEEVEKVRDEIREAFESLGLEVDVKVEADPETGEVPVTVTLKKEALEKLGSAG [r14_602_TrMRF] | 0.834 ± 0.043 | 1.91 ± 0.06 | 1.73 ± 0.18
25 | SADPSRGMTLTVETKELPGKGLLLVTITTSGTVEEALAYVEELAKELGAEIEILEVNENTIVVKLKVLKSAG [r14_172_JUSTAS] | 1.97 ± 0.026 | 2.766 ± 0.014 | 2.49 ± 0.045
26 | SADPVYYKITITLYIKGDSSSTKTFEIVVPAGDVEKAKEEAIKKIKEETGKPILKVETEVTKVPPEELLSAG [r14_104_JUSTAS] | 3.89 ± 0.4 | 4.35 ± 0.13 | 4.35 ± 0.17
27 | SAEEPSLEELLAAIEEEAEARAREFLERHPDVPPGAVLKVPVTLTYPLRLGDVEYPVTFEAEVDVVVPASAG [r14_486_TrMRF] | 1.74 ± 0.041 | 2.01 ± 0.086 | 1.95 ± 0.1
28 | SAEEVTVKLELEIKIKVSEEEAKALAEELARALKEAGEVKITVEPVEKDEDGYYRIRVTIEVKIKKEDLSAG [r14_413_TrROS_Hall] | 3.57 ± 0.12 | 4.24 ± 0.11 | 4.02 ± 0.095
29 | SAEIAELLKELGFEVEVEKVEVKEVEVTVTDENGKKYKVKFVEVKITVKVTNPDGSKRTFSLDELKKLLSAG [r14_578_TrROS_Hall] | 2.84 ± 0.14 | 3.73 ± 0.11 | 3.45 ± 0.13
30 | SAEKLKKILENIEKVEFDEETGEVYITVKSVEEAEKALKELFPDVEIEKDEDGNYRFRIRVEKLPEELLSAG [r14_115_TrROS_Hall] | 3.66 ± 0.12 | 4.68 ± 0.082 | 4.4 ± 0.084
31 | SAELTIEITVPPGKSVEEVLAEAKALAEELGLEIVEVRVERDENGEVRVTVVIKLPEELTEEQRKALLESAG [r14_110_TrROS_Hall] | 3.06 ± 0.17 | 2.89 ± 0.13 | 3.02 ± 0.21
32 | SAEPEVEYVVIELEVTIELAPGQEAPTADEIAEALRAALEAAGAEITSVEVEVRDGQVTVRVTIVLPKKASA [r9_1134_TrROS_Hall] | 3.53 ± 0.086 | 3.51 ± 0.17 | 3.6 ± 0.16
33 | SAEPPWYWIIKIEFPNGKPIVFMMDDPEEARERFEEKLRKEFPDGMKIESIPITPNDMDSPEEALERIKSAG [r14_900_TrROS] | 1.8 ± 0.27 | 1.62 ± 0.16 | 1.75 ± 0.48
34 | SAETTTETKVEEITLEDKKATINITTYSDGSTEATITIYGNDPKVKEKVKEYIKKKDPNIKITKIETKESAG [r14_611_JUSTAS] | 1.85 ± 0.083 | 3.25 ± 0.043 | 2.92 ± 0.093
35 | SAETVVIPIEAPEDEILAAIKALIDANPDVKITITYADGEKKEITLPDGTKITIERLPDGTLLITVEKVSAG [r14_807_TrROS_Hall] | 3.19 ± 0.23 | 1.74 ± 0.066 | 2.49 ± 0.17
36 | SAETVVNVTISRPPPSKYSVTITIQPPTSSTSLPTTTDLPPGAYEELLAALQKAHPNLTFSTVTETSDGSAG [r14_969_JUSTAS] | 0.614 ± 0.03 | 0.758 ± 0.15 | 0.828 ± 0.12

From the supplement of paper PMC12764529
